The source of these data is the supplement of paper PMC5949888.

A value given as a limit tells only on which side of the number the result lay.

The data set has as its system Saccharomyces cerevisiae PS128 hsf1 delta, HSF1(1-493) fusion. Description: growth estimate (transactivation domain function in HSF1 fusion, heat-shock survival) (a.u. (slope of normalised read count over time)); higher = stronger growth at 37°C, i.e. more transactivation activity. The settings on record: library: design library. The procedure, abridged:
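Designed transactivation-domain oligos were fused to truncated yeast HSF1 (amino acids 1–493) and expressed in an hsf1-deleted yeast strain. Cells were replica-plated onto –trp 5-FOA plates and incubated at 30°C or 37°C for 0, 2, 4, 6 and 8 days. Inserts were PCR-amplified and Illumina MiSeq-sequenced as six barcoded replicates from one experiment. Growth estimate is the slope of a robust linear fit over time of read counts normalised to sample totals and starting count.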

In the case of LFDYDFLFGNDFR, the growth estimate was 3.17.

Take LFDYDFLFGNDGA: the growth estimate was 0.693.

On to LFDYDFLFGNDKA, for which the growth estimate was 0.271.

In the case of LFDYDFLFGNDPA, the growth estimate is 0.915.

As to LFDYDFLFGNDRA, the growth estimate is 0.389.

For the sequence LFDYDFLFGNGFA, the growth estimate is 1.45.

Consider LFDYDFLFGNKFA, for which the growth estimate is -0.246.

LFDYDFLFGNPFA: the growth estimate is -0.0703.

Consider LFDYDFLFGNRFA, for which the growth estimate was -0.205.

Consider LFDYDFLFGPDFA, for which the growth estimate is 10.1.

Take LFDYDFLFGRDFA: the growth estimate is 3.41.

Turning to LFDYDFLFKNDFA, the growth estimate was 2.06.

Turning to LFDYDFLFPNDFA, the growth estimate is 4.58.

As for LFDYDFLKGNDFA, the growth estimate is -0.139.

As for LFDYDFLPGNDFA, the growth estimate was -0.232.

For LFDYDFLRGNDFA, the growth estimate was -0.143.

Take LFDYDFPFGNDFA: the growth estimate was 0.577.

In the case of LFDYDFRFGNDFA, the growth estimate was -0.0564.

Take LFDYDGLFGNDFA: the growth estimate was 0.114.

Take LFDYDKLFGNDFA: the growth estimate was -0.159.

As to LFDYDPLFGNDFA, the growth estimate was 0.326.

With LFDYDRLFGNDFA, the growth estimate is -0.0061.

Regarding LFDYGFLFGNDFA, the growth estimate is 1.29.

Regarding LFDYKFLFGNDFA, the growth estimate is 0.0164.

As for LFDYPFLFGNDFA, the growth estimate was 1.53.

In the case of LFDYRFLFGNDFA, the growth estimate was -0.216.

LFGYDFLFGNDFA: the growth estimate was 1.68.

Regarding LFPYDFLFGNDFA, the growth estimate was 1.32.

LFRYDFLFGNDFA: the growth estimate was -0.0535.

As to LGDYDFLFGNDFA, the growth estimate was 2.6.

As to LKDYDFLFGNDFA, the growth estimate was -0.0701.

On to LPDYDFLFGNDFA, for which the growth estimate is 2.12.

On to LRDYDFLFGNDFA, for which the growth estimate was -0.135.

As to MASSHGFSVDTSALLDLFSP, the growth estimate was 0.0397.

Regarding MGSSHGFSVDTSALLDLFSP, the growth estimate is 0.215.

As to MKSSHGFSVDTSALLDLFSP, the growth estimate is -0.215.

As to MLASHGFSVDTSALLDLFSP, the growth estimate was -0.0319.

Turning to MLGSHGFSVDTSALLDLFSP, the growth estimate is 0.0043.

Regarding MLKSHGFSVDTSALLDLFSP, the growth estimate was -0.17.

On to MLPSHGFSVDTSALLDLFSP, for which the growth estimate was -0.0639.

Turning to MLSAHGFSVDTSALLDLFSP, the growth estimate is -0.231.

MLSGHGFSVDTSALLDLFSP: the growth estimate is -0.0767.

Turning to MLSKHGFSVDTSALLDLFSP, the growth estimate is -0.229.

For the sequence MLSPHGFSVDTSALLDLFSP, the growth estimate is 0.158.

Turning to MLSSAGFSVDTSALLDLFSP, the growth estimate was -0.0464.

For MLSSHAFSVDTSALLDLFSP, the growth estimate was -0.157.

On to MLSSHGASVDTSALLDLFSP, for which the growth estimate is -0.0827.

Regarding MLSSHGFAVDTSALLDLFSP, the growth estimate is -0.142.

As for MLSSHGFGVDTSALLDLFSP, the growth estimate was -0.0322.

Turning to MLSSHGFKVDTSALLDLFSP, the growth estimate is < -0.25.

Turning to MLSSHGFPVDTSALLDLFSP, the growth estimate was -0.119.

With MLSSHGFRVDTSALLDLFSP, the growth estimate is -0.241.

Regarding MLSSHGFSADTSALLDLFSP, the growth estimate was -0.026.

Regarding MLSSHGFSGDTSALLDLFSP, the growth estimate was -0.115.

Regarding MLSSHGFSKDTSALLDLFSP, the growth estimate was -0.239.

Consider MLSSHGFSPDTSALLDLFSP, for which the growth estimate was 0.374.

MLSSHGFSRDTSALLDLFSP: the growth estimate was < -0.25.

For the sequence MLSSHGFSVATSALLDLFSP, the growth estimate is -0.234.

In the case of MLSSHGFSVDASALLDLFSP, the growth estimate is 0.0915.

Regarding MLSSHGFSVDGSALLDLFSP, the growth estimate was -0.0946.

MLSSHGFSVDKSALLDLFSP: the growth estimate is -0.249.

As to MLSSHGFSVDPSALLDLFSP, the growth estimate is -0.0885.

Consider MLSSHGFSVDRSALLDLFSP, for which the growth estimate was -0.204.

For the sequence MLSSHGFSVDTGALLDLFSP, the growth estimate was -0.207.

Consider MLSSHGFSVDTKALLDLFSP, for which the growth estimate is -0.145.

As for MLSSHGFSVDTPALLDLFSP, the growth estimate is -0.228.

On to MLSSHGFSVDTSAALDLFSP, for which the growth estimate was -0.124.

Consider MLSSHGFSVDTSAGLDLFSP, for which the growth estimate was -0.207.

MLSSHGFSVDTSAKLDLFSP: the growth estimate is -0.237.

As to MLSSHGFSVDTSALADLFSP, the growth estimate was -0.191.

As to MLSSHGFSVDTSALGDLFSP, the growth estimate is -0.213.

Regarding MLSSHGFSVDTSALKDLFSP, the growth estimate is < -0.25.

Turning to MLSSHGFSVDTSALLALFSP, the growth estimate was -0.21.

Take MLSSHGFSVDTSALLDGFSP: the growth estimate was -0.227.

With MLSSHGFSVDTSALLDKFSP, the growth estimate is -0.227.

Take MLSSHGFSVDTSALLDLASP: the growth estimate is -0.145.

As for MLSSHGFSVDTSALLDLFAP, the growth estimate was -0.0921.

Regarding MLSSHGFSVDTSALLDLFGP, the growth estimate is -0.17.

Turning to MLSSHGFSVDTSALLDLFKP, the growth estimate was -0.179.

MLSSHGFSVDTSALLDLFPP: the growth estimate is -0.106.

In the case of MLSSHGFSVDTSALLDLFRP, the growth estimate is -0.22.

For the sequence MLSSHGFSVDTSALLDLFSA, the growth estimate was -0.127.

On to MLSSHGFSVDTSALLDLFSG, for which the growth estimate was -0.181.

As to MLSSHGFSVDTSALLDLFSK, the growth estimate was -0.245.

On to MLSSHGFSVDTSALLDLFSP, for which the growth estimate was 0.0347.

Consider MLSSHGFSVDTSALLDLGSP, for which the growth estimate was -0.228.

Regarding MLSSHGFSVDTSALLDLKSP, the growth estimate is -0.096.

MLSSHGFSVDTSALLDLPSP: the growth estimate is < -0.25.

Turning to MLSSHGFSVDTSALLDLRSP, the growth estimate was < -0.25.

With MLSSHGFSVDTSALLDPFSP, the growth estimate was < -0.25.

In the case of MLSSHGFSVDTSALLDRFSP, the growth estimate was -0.229.

In the case of MLSSHGFSVDTSALLGLFSP, the growth estimate was -0.207.

For MLSSHGFSVDTSALLKLFSP, the growth estimate is -0.216.

Take MLSSHGFSVDTSALLPLFSP: the growth estimate was -0.158.

With MLSSHGFSVDTSALLRLFSP, the growth estimate is -0.193.

Take MLSSHGFSVDTSALPDLFSP: the growth estimate was -0.23.

Consider MLSSHGFSVDTSALRDLFSP, for which the growth estimate is -0.196.

With MLSSHGFSVDTSAPLDLFSP, the growth estimate is -0.15.

Take MLSSHGFSVDTSGLLDLFSP: the growth estimate was 0.0909.

MLSSHGFSVDTSKLLDLFSP: the growth estimate is -0.143.

As to MLSSHGFSVDTSPLLDLFSP, the growth estimate was -0.191.

For MLSSHGFSVDTSRLLDLFSP, the growth estimate is -0.171.

On to MLSSHGFSVGTSALLDLFSP, for which the growth estimate is -0.248.

For MLSSHGFSVKTSALLDLFSP, the growth estimate was -0.0119.

As to MLSSHGFSVPTSALLDLFSP, the growth estimate was -0.204.

Take MLSSHGGSVDTSALLDLFSP: the growth estimate was -0.112.

Consider MLSSHGPSVDTSALLDLFSP, for which the growth estimate is -0.216.

Regarding MLSSHGRSVDTSALLDLFSP, the growth estimate is -0.248.

For the sequence MLSSHPFSVDTSALLDLFSP, the growth estimate was -0.195.

MLSSHRFSVDTSALLDLFSP: the growth estimate is -0.227.

For MLSSKGFSVDTSALLDLFSP, the growth estimate was -0.115.

On to MLSSPGFSVDTSALLDLFSP, for which the growth estimate was 0.169.

MPSSHGFSVDTSALLDLFSP: the growth estimate is 0.171.

For the sequence MRSSHGFSVDTSALLDLFSP, the growth estimate was -0.241.

Consider PADDIWEELLSEDL, for which the growth estimate was 2.99.

With PAFPGIELQELQELQALLQQ, the growth estimate is -0.0264.

Consider PAPDTQDDFLKWWRSEEAQ, for which the growth estimate is 0.0134.

With PDDDEFSLWDSML, the growth estimate is 1.67.

Take PDLYSILWSDVY: the growth estimate was -0.202.

With PEAPGIELQELQELQALLQQ, the growth estimate is < -0.25.

For the sequence PEFAGIELQELQELQALLQQ, the growth estimate was -0.244.

Take PEFGGIELQELQELQALLQQ: the growth estimate was < -0.25.

As to PEFKGIELQELQELQALLQQ, the growth estimate is < -0.25.

Take PEFPAIELQELQELQALLQQ: the growth estimate is -0.181.

As for PEFPGIALQELQELQALLQQ, the growth estimate was -0.223.

On to PEFPGIEAQELQELQALLQQ, for which the growth estimate was -0.167.

On to PEFPGIEGQELQELQALLQQ, for which the growth estimate was < -0.25.

Take PEFPGIEKQELQELQALLQQ: the growth estimate was 0.269.

On to PEFPGIELAELQELQALLQQ, for which the growth estimate is -0.181.

For the sequence PEFPGIELKELQELQALLQQ, the growth estimate is -0.217.

For the sequence PEFPGIELQALQELQALLQQ, the growth estimate is 0.169.

Consider PEFPGIELQELAELQALLQQ, for which the growth estimate was 0.131.

Take PEFPGIELQELGELQALLQQ: the growth estimate is -0.0807.

Turning to PEFPGIELQELKELQALLQQ, the growth estimate was < -0.25.

Take PEFPGIELQELPELQALLQQ: the growth estimate was -0.22.

With PEFPGIELQELQALQALLQQ, the growth estimate is < -0.25.

Consider PEFPGIELQELQEKQALLQQ, for which the growth estimate is < -0.25.

Take PEFPGIELQELQELAALLQQ: the growth estimate was 0.178.

Turning to PEFPGIELQELQELGALLQQ, the growth estimate was -0.221.

For PEFPGIELQELQELKALLQQ, the growth estimate is -0.22.

For PEFPGIELQELQELPALLQQ, the growth estimate was < -0.25.
